Data: patent US20260125472A1 (HEFEI TG IMMUNOPHARMA, published 2026)

Experiments:
CD3E&D protein [1] = molecular target: T1, CD3E&D protein (UniProt P04234 22-105); assay: SPR (Biacore 8K), antibody on CM5 chip, CD3 E&D antigen as analyte; design: Fold change: reference not given here
T1 construct: Purchased from Acro; also called CD3 E&D antigens; CD3E&D antigen protein
Method: In a Biacore 8K (Cytiva) system, the antibody was diluted to 10 μg/mL in HBS-EP running buffer and coupled to a CM5 chip (Cytiva) at a flow rate of 10 μL/min.

CD3E&D protein [2] = molecular target: T1, CD3E&D protein; assay: ELISA, coated CD3E&D protein, OD450 [panel A]
Method: (§1) In this example, the binding properties of the parental antibody Cross3 and the CD3 affinity-reduced antibody (the production method and the amino acid sequences of the heavy and light chains were shown in Example 1) were detected by ELISA. The CD3E&D protein was coated onto a 96-well plate by the inventors, and the strength of the signal after the addition of the antibody was used to determine the binding properties of the antibody and CD3E&D.
(§2) CD3E&D protein (purchased from Acro) was diluted to 2 μg/ml with PBS buffer, added to a 96-well plate at a volume of 100 μL/well, and placed at 4° C. overnight. The PBS buffer in the 96-well plate was aspirated, and the plate was washed 6 times with PBST (pH 7.2 PBS containing 0.1% Tween 20) buffer. Then, 200 μL/well PBS/10% BSA was added and incubated at 37° C. for 2 h for blocking. The blocking solution was removed, and the plate was washed six times with PBST. Then, the to-be-tested antibodies serially diluted with PBST/0.05% BSA, Cross3, Cross303, Cross307, Cross308, Cross309, Cross310, Cross311, Cross312, Cross313, Cross314, Cross316, Cross317, Cross318, Cross323, Cross325, Cross326, and control IgG1 (purchased from Bio-Tech) were added at 100 μL/well, and incubated at 37° C. for 1 h. The reaction system was removed, and the plate was washed 6 times with PBST. Then, the cells were incubated at 37° C. for 1 h with HRP (horseradish peroxidase)-labeled anti-human secondary antibody (Fab specific) (purchased from Sigma) serially diluted with PBST/0.05% BSA at 100 μL/well. The plate was washed six times with PBST, TMB (tetramethylbenzidine) was added at 80 μL/well and incubated at room temperature for 3 min. 4 M sulfuric acid was added at 80 μL/well to terminate the reaction. The absorbance was read at 450 nm using a microplate reader.

CD3E&D protein [3] = molecular target: T1, CD3E&D protein; assay: ELISA, coated CD3E&D protein, OD450 [panel B]
Method: as §1, §2

CD3 on CD8 T cells = molecular target: T2, CD3 on CD8 T cells (Homo sapiens (Human), UniProt P07766 23-207); assay: flow cytometry, CD8 T cells in PBMCs, binding ratio % [panel A]
T2 construct: Native CD3 complex on CD8 T cells among PBMCs; also called T cells (PBMCs gated with anti-human CD8 antibody)
T2 sequence (P07766 23-207 limits assumed): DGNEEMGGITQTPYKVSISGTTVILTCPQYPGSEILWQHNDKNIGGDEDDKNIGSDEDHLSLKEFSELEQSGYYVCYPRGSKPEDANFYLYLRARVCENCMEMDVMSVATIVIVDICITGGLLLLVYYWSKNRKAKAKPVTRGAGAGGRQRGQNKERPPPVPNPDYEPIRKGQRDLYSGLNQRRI
Method: PBMCs were diluted with PBS to 2×10⁶/mL and added to a 1.5 ml EP tube at a volume of 100 μL/tube, 10 μL/tube of goat serum was added thereto and incubated at 4° C. for 30 min for blocking. […] 1 mL of PBS was added to the EP tube, followed by centrifugation at 3500 rpm for 5 min at 4° C. The supernatant was discarded, and the cells were washed again with PBS. After centrifugation, the supernatant was discarded, and the cells were resuspended with 100 μl/tube PBS. 1 μl/tube Alexa-647-labeled goat anti-human secondary antibody (purchased from Jackson lab) and 0.5 μl/tube PerCP-Cy5.5-labeled anti-human CD8 antibody were added and incubated at 4° C. in the dark for 30 min. The cells were washed twice with PBS, and the supernatant was discarded after centrifugation. The cells were resuspended with […] of PBS and assayed using the flow cytometry.

T1 sequence (chain, as listed by the source limits assumed, chain 1 of 2): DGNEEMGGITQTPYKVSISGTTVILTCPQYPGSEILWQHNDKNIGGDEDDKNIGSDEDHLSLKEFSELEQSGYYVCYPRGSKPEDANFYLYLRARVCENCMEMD
T1 sequence (P04234 22-105 limits assumed, chain 2 of 2): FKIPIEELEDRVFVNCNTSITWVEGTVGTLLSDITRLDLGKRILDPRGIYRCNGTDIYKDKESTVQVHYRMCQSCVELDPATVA

Row | Fold change (CD3E&D protein [1]) | Kd (CD3E&D protein [1]) | koff (CD3E&D protein [1]) | kon (CD3E&D protein [1]) | EC50 (read off the curve) (CD3E&D protein [2]) | EC50 (read off the curve) (CD3E&D protein [3]) | EC50 (read off the curve) (CD3 on CD8 T cells) | Binder
1 | 12.7 | 2.09 nM | 0.0991 s⁻¹ | 4.75e+07 M⁻¹ s⁻¹ | ~0.03 µg/mL |  |  | Cross303 (antibody, human IgG1, kappa, V domains shown) VH: EVQLLESGGGLVQPGGSLKLSCAASGFTFNTYAMNWVRQAPGKGLEWVARIRSKYNNYATYYADSVKDRFTISRDDSKNTAYLQMNNLKTEDTAVYYCVRHGMFGNSYVSWFAYWGQGTLVTVSS VL: ELVVTQEPSLTVSPGGTVTLTCRSSTGAVTTSNYANWVQQKPGQAPRGLIGGTNKRAPGTPARFSGSLLGGKAALTLSGVQPEDEAEYYCALWYSNLWVFGGGTKLTVLR
2 | 11.6 | 1.92 nM | 0.00567 s⁻¹ | 2.96e+06 M⁻¹ s⁻¹ |  | ~0.03 µg/mL | ~0.3 µg/mL | Cross313 (antibody, human IgG1, kappa, V domains shown) VH: EVQLLESGGGLVQPGGSLKLSCAASGFTFNTYAMNWVRQAPGKGLEWVARIRSKYNNYATYYADSVKDRFTISRDDSKNTAYLQMNNLKTEDTAVYYCVRHGNFGNSYQSWFAYWGQGTLVTVSS VL: ELVVTQEPSLTVSPGGTVTLTCRSSTGAVTTSNYANWVQQKPGQAPRGLIGGTNKRAPGTPARFSGSLLGGKAALTLSGVQPEDEAEYYCALWYSNLWVFGGGTKLTVLR
3 | 20.1 | 3.32 nM | 0.0056 s⁻¹ | 1.69e+06 M⁻¹ s⁻¹ |  | ~0.03 µg/mL |  | Cross318 (antibody, human IgG1, kappa, V domains shown) VH: EVQLLESGGGLVQPGGSLKLSCAASGFTFNTYAMNWVRQAPGKGLEWVARIRSKYNNYATYYADSVKDRFTISRDDSKNTAYLQMNNLKTEDTAVYYCVRHGNFGNSYVSWFAMWGQGTLVTVSS VL: ELVVTQEPSLTVSPGGTVTLTCRSSTGAVTTSNYANWVQQKPGQAPRGLIGGTNKRAPGTPARFSGSLLGGKAALTLSGVQPEDEAEYYCALWYSNLWVFGGGTKLTVLR
4 | 26.5 | 4.37 nM | 0.00887 s⁻¹ | 2.03e+06 M⁻¹ s⁻¹ |  | ~0.03 µg/mL | ~0.4 µg/mL | Cross314 (antibody, human IgG1, kappa, V domains shown) VH: EVQLLESGGGLVQPGGSLKLSCAASGFTFNTYAMNWVRQAPGKGLEWVARIRSKYNNYATYYADSVKDRFTISRDDSKNTAYLQMNNLKTEDTAVYYCVRHGNFGNSYSSWFAYWGQGTLVTVSS VL: ELVVTQEPSLTVSPGGTVTLTCRSSTGAVTTSNYANWVQQKPGQAPRGLIGGTNKRAPGTPARFSGSLLGGKAALTLSGVQPEDEAEYYCALWYSNLWVFGGGTKLTVLR
5 | 11.8 | 1.95 nM | 0.0209 s⁻¹ | 1.07e+07 M⁻¹ s⁻¹ | ~0.03 µg/mL |  |  | Cross308 (antibody, human IgG1, kappa, V domains shown) VH: EVQLLESGGGLVQPGGSLKLSCAASGFTFNTYAMNWVRQAPGKGLEWVARIRSKYNNYATYYADSVKDRFTISRDDSKNTAYLQMNNLKTEDTAVYYCVRHGNFGNPYVSWFAYWGQGTLVTVSS VL: ELVVTQEPSLTVSPGGTVTLTCRSSTGAVTTSNYANWVQQKPGQAPRGLIGGTNKRAPGTPARFSGSLLGGKAALTLSGVQPEDEAEYYCALWYSNLWVFGGGTKLTVLR
6 | 21.2 | 3.5 nM | 0.0107 s⁻¹ | 3.05e+06 M⁻¹ s⁻¹ |  | ~0.03 µg/mL | ~0.3 µg/mL | Cross312 (antibody, human IgG1, kappa, V domains shown) VH: EVQLLESGGGLVQPGGSLKLSCAASGFTFNTYAMNWVRQAPGKGLEWVARIRSKYNNYATYYADSVKDRFTISRDDSKNTAYLQMNNLKTEDTAVYYCVRHGNFGNSYHSWFAYWGQGTLVTVSS VL: ELVVTQEPSLTVSPGGTVTLTCRSSTGAVTTSNYANWVQQKPGQAPRGLIGGTNKRAPGTPARFSGSLLGGKAALTLSGVQPEDEAEYYCALWYSNLWVFGGGTKLTVLR
7 | 27.6 | 4.55 nM | 0.00959 s⁻¹ | 2.11e+06 M⁻¹ s⁻¹ |  | ~0.03 µg/mL | ~0.3 µg/mL | Cross311 (antibody, human IgG1, kappa, V domains shown) VH: EVQLLESGGGLVQPGGSLKLSCAASGFTFNTYAMNWVRQAPGKGLEWVARIRSKYNNYATYYADSVKDRFTISRDDSKNTAYLQMNNLKTEDTAVYYCVRHGNFGNSEVSWFAYWGQGTLVTVSS VL: ELVVTQEPSLTVSPGGTVTLTCRSSTGAVTTSNYANWVQQKPGQAPRGLIGGTNKRAPGTPARFSGSLLGGKAALTLSGVQPEDEAEYYCALWYSNLWVFGGGTKLTVLR
8 | 16.8 | 2.77 nM | 0.00613 s⁻¹ | 2.22e+06 M⁻¹ s⁻¹ | ~0.03 µg/mL |  | ~0.3 µg/mL | Cross310 (antibody, human IgG1, kappa, V domains shown) VH: EVQLLESGGGLVQPGGSLKLSCAASGFTFNTYAMNWVRQAPGKGLEWVARIRSKYNNYATYYADSVKDRFTISRDDSKNTAYLQMNNLKTEDTAVYYCVRHGNFGNYYVSWFAYWGQGTLVTVSS VL: ELVVTQEPSLTVSPGGTVTLTCRSSTGAVTTSNYANWVQQKPGQAPRGLIGGTNKRAPGTPARFSGSLLGGKAALTLSGVQPEDEAEYYCALWYSNLWVFGGGTKLTVLR
9 | 20.8 | 3.43 nM | 0.00249 s⁻¹ | 728000 M⁻¹ s⁻¹ |  | ~0.03 µg/mL | ~0.3 µg/mL | Cross316 (antibody, human IgG1, kappa, V domains shown) VH: EVQLLESGGGLVQPGGSLKLSCAASGFTFNTYAMNWVRQAPGKGLEWVARIRSKYNNYATYYADSVKDRFTISRDDSKNTAYLQMNNLKTEDTAVYYCVRHGNFGNSYVSWFLYWGQGTLVTVSS VL: ELVVTQEPSLTVSPGGTVTLTCRSSTGAVTTSNYANWVQQKPGQAPRGLIGGTNKRAPGTPARFSGSLLGGKAALTLSGVQPEDEAEYYCALWYSNLWVFGGGTKLTVLR
10 | 21 | 3.47 nM | 0.00473 s⁻¹ | 1.36e+06 M⁻¹ s⁻¹ | ~0.03 µg/mL |  |  | Cross307 (antibody, human IgG1, kappa, V domains shown) VH: EVQLLESGGGLVQPGGSLKLSCAASGFTFNTYAMNWVRQAPGKGLEWVARIRSKYNNYATYYADSVKDRFTISRDDSKNTAYLQMNNLKTEDTAVYYCVRHGNFGNEYVSWFAYWGQGTLVTVSS VL: ELVVTQEPSLTVSPGGTVTLTCRSSTGAVTTSNYANWVQQKPGQAPRGLIGGTNKRAPGTPARFSGSLLGGKAALTLSGVQPEDEAEYYCALWYSNLWVFGGGTKLTVLR
11 | 11.1 | 1.83 nM | 0.0124 s⁻¹ | 6.76e+06 M⁻¹ s⁻¹ | ~0.03 µg/mL |  | ~0.4 µg/mL | Cross309 (antibody, human IgG1, kappa, V domains shown) VH: EVQLLESGGGLVQPGGSLKLSCAASGFTFNTYAMNWVRQAPGKGLEWVARIRSKYNNYATYYADSVKDRFTISRDDSKNTAYLQMNNLKTEDTAVYYCVRHGNFGNVYVSWFAYWGQGTLVTVSS VL: ELVVTQEPSLTVSPGGTVTLTCRSSTGAVTTSNYANWVQQKPGQAPRGLIGGTNKRAPGTPARFSGSLLGGKAALTLSGVQPEDEAEYYCALWYSNLWVFGGGTKLTVLR
